Test results: patent US20260209293A1 (Novo Nordisk, published 2026)
*1 amine or outer side, *2 acyl side, *3 side chain or, on linkers, in order; H or OH if unused. Side-chain parts run from the residue outwards. The star is where a group is joined. C20 diacid = O=C(O)CCCCCCCCCCCCCCCCCCC(=O)*; C18 diacid = O=C(O)CCCCCCCCCCCCCCCCC(=O)*; C16 diacid = O=C(O)CCCCCCCCCCCCCCC(=O)*; γGlu = O=C(O)[C@H](CCC(=O)[*:2])N[*:1]

T1: human amylin-3(a) receptor (human, UniProt P30988 25-474; O60896 24-148)
T1 sequence (looked up) 1: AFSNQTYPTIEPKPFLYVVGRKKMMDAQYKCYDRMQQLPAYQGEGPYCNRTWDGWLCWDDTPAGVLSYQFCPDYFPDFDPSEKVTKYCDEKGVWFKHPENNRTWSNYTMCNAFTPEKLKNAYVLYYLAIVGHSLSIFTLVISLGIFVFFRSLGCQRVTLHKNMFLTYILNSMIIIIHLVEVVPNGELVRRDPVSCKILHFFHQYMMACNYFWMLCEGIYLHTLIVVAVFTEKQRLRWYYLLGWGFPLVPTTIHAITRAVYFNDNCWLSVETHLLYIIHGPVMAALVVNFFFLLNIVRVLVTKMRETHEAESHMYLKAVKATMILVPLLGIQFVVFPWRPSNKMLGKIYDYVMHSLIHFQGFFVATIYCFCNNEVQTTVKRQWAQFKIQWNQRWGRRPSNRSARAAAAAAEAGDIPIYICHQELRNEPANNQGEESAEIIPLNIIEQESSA
T1 sequence (looked up) 2: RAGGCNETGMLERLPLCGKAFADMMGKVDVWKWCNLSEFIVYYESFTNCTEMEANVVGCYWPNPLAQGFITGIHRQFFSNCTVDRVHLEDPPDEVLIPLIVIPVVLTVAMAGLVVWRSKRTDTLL

T2: human calcitonin receptor (a) (human, UniProt P30988 25-474)
T2 sequence (looked up): T1 sequence (looked up) 1

B1: N^1-[(4S)-4-carboxy-4-(19-carboxynonadecanoylamino)butanoyl]-[Ala1,Ser2,His3,Leu4,Ser5,Ala7,Gln8,Glu14,His17,Asp21,Pro25,Pro28,Pro29,Asp31,Pro37]-human amylin (peptide)
peptide: {C20 diacid-γGlu}-ASHLSTAQTQRLAEFLHHSSDNFGPILPPTDVGSNTP-NH2
SMILES: CC[C@H](C)[C@H](NC(=O)[C@@H]1CCCN1C(=O)CNC(=O)[C@H](Cc1ccccc1)NC(=O)[C@H](CC(N)=O)NC(=O)[C@H](CC(=O)O)NC(=O)[C@H](CO)NC(=O)[C@H](CO)NC(=O)[C@H](Cc1c[nH]cn1)NC(=O)[C@H](Cc1c[nH]cn1)NC(=O)[C@H](CC(C)C)NC(=O)[C@H](Cc1ccccc1)NC(=O)[C@H](CCC(=O)O)NC(=O)[C@H](C)NC(=O)[C@H](CC(C)C)NC(=O)[C@H](CCCNC(=N)N)NC(=O)[C@H](CCC(N)=O)NC(=O)[C@@H](NC(=O)[C@H](CCC(N)=O)NC(=O)[C@H](C)NC(=O)[C@@H](NC(=O)[C@H](CO)NC(=O)[C@H](CC(C)C)NC(=O)[C@H](Cc1c[nH]cn1)NC(=O)[C@H](CO)NC(=O)[C@H](C)NC(=O)CC[C@H](NC(=O)CCCCCCCCCCCCCCCCCCC(=O)O)C(=O)O)[C@@H](C)O)[C@@H](C)O)C(=O)N[C@@H](CC(C)C)C(=O)N1CCC[C@H]1C(=O)N1CCC[C@H]1C(=O)N[C@H](C(=O)N[C@@H](CC(=O)O)C(=O)N[C@H](C(=O)NCC(=O)N[C@@H](CO)C(=O)N[C@@H](CC(N)=O)C(=O)N[C@H](C(=O)N1CCC[C@H]1C(N)=O)[C@@H](C)O)C(C)C)[C@@H](C)O
B2: N^1-[(4S)-4-carboxy-4-(15-carboxypentadecanoylamino)butanoyl]-[Ala1,Ser2,His3,Leu4,Ser5,Ala7,Gln8,Ala10,Glu14,His17,Asp21,Pro25,Pro28,Pro29,Asp31,Pro37]-human … (peptide)
peptide: {C16 diacid-γGlu}-ASHLSTAQTARLAEFLHHSSDNFGPILPPTDVGSNTP-NH2
SMILES: CC[C@H](C)[C@H](NC(=O)[C@@H]1CCCN1C(=O)CNC(=O)[C@H](Cc1ccccc1)NC(=O)[C@H](CC(N)=O)NC(=O)[C@H](CC(=O)O)NC(=O)[C@H](CO)NC(=O)[C@H](CO)NC(=O)[C@H](Cc1c[nH]cn1)NC(=O)[C@H](Cc1c[nH]cn1)NC(=O)[C@H](CC(C)C)NC(=O)[C@H](Cc1ccccc1)NC(=O)[C@H](CCC(=O)O)NC(=O)[C@H](C)NC(=O)[C@H](CC(C)C)NC(=O)[C@H](CCCNC(=N)N)NC(=O)[C@H](C)NC(=O)[C@@H](NC(=O)[C@H](CCC(N)=O)NC(=O)[C@H](C)NC(=O)[C@@H](NC(=O)[C@H](CO)NC(=O)[C@H](CC(C)C)NC(=O)[C@H](Cc1c[nH]cn1)NC(=O)[C@H](CO)NC(=O)[C@H](C)NC(=O)CC[C@H](NC(=O)CCCCCCCCCCCCCCC(=O)O)C(=O)O)[C@@H](C)O)[C@@H](C)O)C(=O)N[C@@H](CC(C)C)C(=O)N1CCC[C@H]1C(=O)N1CCC[C@H]1C(=O)N[C@H](C(=O)N[C@@H](CC(=O)O)C(=O)N[C@H](C(=O)NCC(=O)N[C@@H](CO)C(=O)N[C@@H](CC(N)=O)C(=O)N[C@H](C(=O)N1CCC[C@H]1C(N)=O)[C@@H](C)O)C(C)C)[C@@H](C)O
B3: N^1-[(4S)-4-carboxy-4-(17-carboxyheptadecanoylamino)butanoyl]-[Ala1,Ser2,His3,Leu4,Ser5,Ala7,Gln8,Glu14,His17,Asp21, Pro25,Pro28,Pro29,Asp31, Pro37]-human … (peptide)
peptide: {C18 diacid-γGlu}-ASHLSTAQTQRLAEFLHHSSDNFGPILPPTDVGSNTP-NH2
SMILES: CC[C@H](C)[C@H](NC(=O)[C@@H]1CCCN1C(=O)CNC(=O)[C@H](Cc1ccccc1)NC(=O)[C@H](CC(N)=O)NC(=O)[C@H](CC(=O)O)NC(=O)[C@H](CO)NC(=O)[C@H](CO)NC(=O)[C@H](Cc1c[nH]cn1)NC(=O)[C@H](Cc1c[nH]cn1)NC(=O)[C@H](CC(C)C)NC(=O)[C@H](Cc1ccccc1)NC(=O)[C@H](CCC(=O)O)NC(=O)[C@H](C)NC(=O)[C@H](CC(C)C)NC(=O)[C@H](CCCNC(=N)N)NC(=O)[C@H](CCC(N)=O)NC(=O)[C@@H](NC(=O)[C@H](CCC(N)=O)NC(=O)[C@H](C)NC(=O)[C@@H](NC(=O)[C@H](CO)NC(=O)[C@H](CC(C)C)NC(=O)[C@H](Cc1c[nH]cn1)NC(=O)[C@H](CO)NC(=O)[C@H](C)NC(=O)CC[C@H](NC(=O)CCCCCCCCCCCCCCCCC(=O)O)C(=O)O)[C@@H](C)O)[C@@H](C)O)C(=O)N[C@@H](CC(C)C)C(=O)N1CCC[C@H]1C(=O)N1CCC[C@H]1C(=O)N[C@H](C(=O)N[C@@H](CC(=O)O)C(=O)N[C@H](C(=O)NCC(=O)N[C@@H](CO)C(=O)N[C@@H](CC(N)=O)C(=O)N[C@H](C(=O)N1CCC[C@H]1C(N)=O)[C@@H](C)O)C(C)C)[C@@H](C)O
B4: N^1-[(4S)-4-carboxy-4-[[(4S)-4-carboxy-4-(17-carboxyheptadecanoylamino)butanoyl]amino]butanoyl]-[Ala1,Ser2,His3,Leu4,Ser5,Ala7,Gln8,Ala10,Glu14,His17,Pro25,Pro2 … (peptide)
peptide: {C18 diacid-γGlu-γGlu}-ASHLSTAQTARLAEFLHHFGPILPPTDVGSETP-NH2
SMILES: CC[C@H](C)[C@H](NC(=O)[C@@H]1CCCN1C(=O)CNC(=O)[C@H](Cc1ccccc1)NC(=O)[C@H](Cc1c[nH]cn1)NC(=O)[C@H](Cc1c[nH]cn1)NC(=O)[C@H](CC(C)C)NC(=O)[C@H](Cc1ccccc1)NC(=O)[C@H](CCC(=O)O)NC(=O)[C@H](C)NC(=O)[C@H](CC(C)C)NC(=O)[C@H](CCCNC(=N)N)NC(=O)[C@H](C)NC(=O)[C@@H](NC(=O)[C@H](CCC(N)=O)NC(=O)[C@H](C)NC(=O)[C@@H](NC(=O)[C@H](CO)NC(=O)[C@H](CC(C)C)NC(=O)[C@H](Cc1c[nH]cn1)NC(=O)[C@H](CO)NC(=O)[C@H](C)NC(=O)CC[C@H](NC(=O)CC[C@H](NC(=O)CCCCCCCCCCCCCCCCC(=O)O)C(=O)O)C(=O)O)[C@@H](C)O)[C@@H](C)O)C(=O)N[C@@H](CC(C)C)C(=O)N1CCC[C@H]1C(=O)N1CCC[C@H]1C(=O)N[C@H](C(=O)N[C@@H](CC(=O)O)C(=O)N[C@H](C(=O)NCC(=O)N[C@@H](CO)C(=O)N[C@@H](CCC(=O)O)C(=O)N[C@H](C(=O)N1CCC[C@H]1C(N)=O)[C@@H](C)O)C(C)C)[C@@H](C)O
B5: N^1-acetyl,N{Epsilon-25}-[(4S)-4-carboxy-4-(17-carboxyheptadecanoylamino)butanoyl]-[Ala1,Ser2,Gln3,Leu4,Ser5,Ala7,Gln8,Glu14, His17,Asp21,Lys25, Pro28, … (peptide)
peptide: Ac-ASQLSTAQTQRLAEFLHHSSDNFGK([γGlu-C18 diacid])ILPPTDVGSNTP-NH2
SMILES: CC[C@H](C)[C@H](NC(=O)[C@H](CCCCNC(=O)CC[C@H](NC(=O)CCCCCCCCCCCCCCCCC(=O)O)C(=O)O)NC(=O)CNC(=O)[C@H](Cc1ccccc1)NC(=O)[C@H](CC(N)=O)NC(=O)[C@H](CC(=O)O)NC(=O)[C@H](CO)NC(=O)[C@H](CO)NC(=O)[C@H](Cc1c[nH]cn1)NC(=O)[C@H](Cc1c[nH]cn1)NC(=O)[C@H](CC(C)C)NC(=O)[C@H](Cc1ccccc1)NC(=O)[C@H](CCC(=O)O)NC(=O)[C@H](C)NC(=O)[C@H](CC(C)C)NC(=O)[C@H](CCCNC(=N)N)NC(=O)[C@H](CCC(N)=O)NC(=O)[C@@H](NC(=O)[C@H](CCC(N)=O)NC(=O)[C@H](C)NC(=O)[C@@H](NC(=O)[C@H](CO)NC(=O)[C@H](CC(C)C)NC(=O)[C@H](CCC(N)=O)NC(=O)[C@H](CO)NC(=O)[C@H](C)NC(C)=O)[C@@H](C)O)[C@@H](C)O)C(=O)N[C@@H](CC(C)C)C(=O)N1CCC[C@H]1C(=O)N1CCC[C@H]1C(=O)N[C@H](C(=O)N[C@@H](CC(=O)O)C(=O)N[C@H](C(=O)NCC(=O)N[C@@H](CO)C(=O)N[C@@H](CC(N)=O)C(=O)N[C@H](C(=O)N1CCC[C@H]1C(N)=O)[C@@H](C)O)C(C)C)[C@@H](C)O
B6: N^1-acetyl,N{Epsilon-25}-[(4S)-4-carboxy-4-(17-carboxyheptadecanoylamino)butanoyl]-[Ala1,Ser2,Gln3,Leu4,Ser5,Ala7,Gln8,Glu14,His17,Asp21, Pro22,Lys25, … (peptide)
peptide: Ac-ASQLSTAQTQRLAEFLHHSSDPFGK([γGlu-C18 diacid])IPSSTDVGPDTP-NH2
SMILES: CC[C@H](C)[C@H](NC(=O)[C@H](CCCCNC(=O)CC[C@H](NC(=O)CCCCCCCCCCCCCCCCC(=O)O)C(=O)O)NC(=O)CNC(=O)[C@H](Cc1ccccc1)NC(=O)[C@@H]1CCCN1C(=O)[C@H](CC(=O)O)NC(=O)[C@H](CO)NC(=O)[C@H](CO)NC(=O)[C@H](Cc1c[nH]cn1)NC(=O)[C@H](Cc1c[nH]cn1)NC(=O)[C@H](CC(C)C)NC(=O)[C@H](Cc1ccccc1)NC(=O)[C@H](CCC(=O)O)NC(=O)[C@H](C)NC(=O)[C@H](CC(C)C)NC(=O)[C@H](CCCNC(=N)N)NC(=O)[C@H](CCC(N)=O)NC(=O)[C@@H](NC(=O)[C@H](CCC(N)=O)NC(=O)[C@H](C)NC(=O)[C@@H](NC(=O)[C@H](CO)NC(=O)[C@H](CC(C)C)NC(=O)[C@H](CCC(N)=O)NC(=O)[C@H](CO)NC(=O)[C@H](C)NC(C)=O)[C@@H](C)O)[C@@H](C)O)C(=O)N1CCC[C@H]1C(=O)N[C@@H](CO)C(=O)N[C@@H](CO)C(=O)N[C@H](C(=O)N[C@@H](CC(=O)O)C(=O)N[C@H](C(=O)NCC(=O)N1CCC[C@H]1C(=O)N[C@@H](CC(=O)O)C(=O)N[C@H](C(=O)N1CCC[C@H]1C(N)=O)[C@@H](C)O)C(C)C)[C@@H](C)O

What follows are binders tested against T1, human amylin-3(a) receptor (assay: cell-based or functional assay).
With B1 the “hAmyR3 potency, EC50 (pM); CRE-luciferase reporter in BHK cells” value (“hAmyR3 potency, EC50 (pM)” for short) was 0.9 pM.
B2 was tested, and the “hAmyR3 potency, EC50 (pM)” value was 1.62 pM.
In the case of B3, the “hAmyR3 potency, EC50 (pM)” value is reported as 1.64 pM.
With B4 the “hAmyR3 potency, EC50 (pM)” value was 1.11 pM.
In the case of B5, the “hAmyR3 potency, EC50 (pM)” value is reported as 1.38 pM.
With B6 the “hAmyR3 potency, EC50 (pM)” value was 1.5 pM.

What follows are binders tested against T2, human calcitonin receptor (a) (assay: cell-based or functional assay).
In the case of B1, the “hCalcR potency, EC50 (pM); CRE-luciferase reporter in BHK cells” value (“hCalcR potency, EC50 (pM)” for short) is reported as 1.3 pM.
With B2 the “hCalcR potency, EC50 (pM)” value was 1.5 pM.
With B3 the “hCalcR potency, EC50 (pM)” value was 1.89 pM.
With B4 the “hCalcR potency, EC50 (pM)” value was 1.15 pM.
B5 was tested, and the “hCalcR potency, EC50 (pM)” value was 1.19 pM.
B6 was tested, and the “hCalcR potency, EC50 (pM)” value was 1 pM.
